For 97 variants, protein stability index results are on record in the supplement of paper PMC10567573.

Sequences and labels used below:
B1: FAM50A (parent)
chain: HIFPASRWEPYDPEKKWDKYTIR
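Note: lentivirally expressed fusions sorted by FACS into six bins by GFP to DsRed ratio, PSI derived from sequencing read proportions per bin multiplied by bin number.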

The data set covers variants of B1. As to the kind of experiment: protein stability index of a GFP-peptide fusion (GPS, HEK-293T) (PSI 1-6); higher = more stable. To be noted: c terminus: native.
Consider HIFPASWWEPYDPEKKWDKYTIR, for which the protein stability index was 1.22.

With HIFPASAWEPYDPEKKWDKYTIR, the protein stability index amounted to 2.34.

HIFPASHWEPYDPEKKWDKYTIR: the protein stability index turned out to be 2.

HIFPASEWEPYDPEKKWDKYTIR: the protein stability index worked out at 3.47.

As for HIFPASMWEPYDPEKKWDKYTIR, the protein stability index is 2.6.

As for HIFPASKWEPYDPEKKWDKYTIR, the protein stability index worked out at 2.1.

In the case of HIFPASVWEPYDPEKKWDKYTIR, the protein stability index worked out at 2.48.

As for HIFPASPWEPYDPEKKWDKYTIR, the protein stability index was 2.01.

On to HIFPASLWEPYDPEKKWDKYTIR, for which the protein stability index turned out to be 1.21.

In the case of HIFPASIWEPYDPEKKWDKYTIR, the protein stability index stood at 1.48.

Consider HIFPASYWEPYDPEKKWDKYTIR, for which the protein stability index was 1.65.

Turning to HIFPASDWEPYDPEKKWDKYTIR, the protein stability index came out at 3.29.

Consider HIFPASQWEPYDPEKKWDKYTIR, for which the protein stability index was 2.47.

As for HIFPASGWEPYDPEKKWDKYTIR, the protein stability index turned out to be 2.5.

For the variant HIFPASCWEPYDPEKKWDKYTIR, the protein stability index was 1.85.

For HIFPASSWEPYDPEKKWDKYTIR, the protein stability index amounted to 3.31.

HIFPASNWEPYDPEKKWDKYTIR: the protein stability index came to 2.38.

For the variant HIFPASTWEPYDPEKKWDKYTIR, the protein stability index worked out at 2.66.

For HIFPASRWEPYHPEKKWDKYTIR, the protein stability index is 2.98.

With HIFPASRWEPYGPEKKWDKYTIR, the protein stability index stood at 2.16.

Regarding HIFPASRWEPYYPEKKWDKYTIR, the protein stability index was found to be 1.75.

On to HIFPASRWEPYMPEKKWDKYTIR, for which the protein stability index was found to be 2.6.

For the variant HIFPASRWEPYEPEKKWDKYTIR, the protein stability index was determined as 2.15.

On to HIFPASRWEPYWPEKKWDKYTIR, for which the protein stability index was found to be 1.8.

Take HIFPASRWEPYSPEKKWDKYTIR: the protein stability index was found to be 2.49.

With HIFPASRWEPYTPEKKWDKYTIR, the protein stability index is 2.11.

Consider HIFPASRWEPYVPEKKWDKYTIR, for which the protein stability index was 3.47.

For the variant HIFPASRWEPYIPEKKWDKYTIR, the protein stability index came to 1.79.

Consider HIFPASRWEPYAPEKKWDKYTIR, for which the protein stability index is 2.5.

Take HIFPASRWEPYNPEKKWDKYTIR: the protein stability index is 2.08.

Consider HIFPASRWEPYKPEKKWDKYTIR, for which the protein stability index came to 2.73.

For the variant HIFPASRWEPYPPEKKWDKYTIR, the protein stability index was 1.69.

For the variant HIFPASRWEPYCPEKKWDKYTIR, the protein stability index was 1.89.

Regarding HIFPASRWEPYQPEKKWDKYTIR, the protein stability index worked out at 2.19.

As for HIFPASRWEPYFPEKKWDKYTIR, the protein stability index stood at 2.48.

Turning to HIFPASRWEPYRPEKKWDKYTIR, the protein stability index was determined as 2.07.

For HIFPASRWEPYLPEKKWDKYTIR, the protein stability index came out at 1.83.

Turning to HIFPASRWEPVDPEKKWDKYTIR, the protein stability index was 2.67.

As to HIFPASRWEPWDPEKKWDKYTIR, the protein stability index was 2.11.

Take HIFPASRWEPFDPEKKWDKYTIR: the protein stability index was 2.18.

For the variant HIFPASRWEPCDPEKKWDKYTIR, the protein stability index amounted to 2.48.

HIFPASRWEPIDPEKKWDKYTIR: the protein stability index was 2.51.

For HIFPASRWEPHDPEKKWDKYTIR, the protein stability index stood at 2.35.

For the variant HIFPASRWEPMDPEKKWDKYTIR, the protein stability index was determined as 2.65.

As for HIFPASRWEPKDPEKKWDKYTIR, the protein stability index worked out at 3.01.

Turning to HIFPASRWEPSDPEKKWDKYTIR, the protein stability index is 2.83.

For the variant HIFPASRWEPTDPEKKWDKYTIR, the protein stability index was 2.42.

Regarding HIFPASRWEPADPEKKWDKYTIR, the protein stability index is 2.51.

For the variant HIFPASRWEPQDPEKKWDKYTIR, the protein stability index was 2.28.

Consider HIFPASRWEPEDPEKKWDKYTIR, for which the protein stability index came to 2.37.

For HIFPASRWEPNDPEKKWDKYTIR, the protein stability index was found to be 2.67.

Turning to HIFPASRWEPDDPEKKWDKYTIR, the protein stability index worked out at 2.74.

As for HIFPASRWEPRDPEKKWDKYTIR, the protein stability index came out at 4.26.

Consider HIFPASRWEPLDPEKKWDKYTIR, for which the protein stability index amounted to 2.27.

With HIFPASRWEPGDPEKKWDKYTIR, the protein stability index amounted to 3.04.

As to HIFPASRWEPPDPEKKWDKYTIR, the protein stability index stood at 2.71.

For HYFPASRWEPYDPEKKWDKYTIR, the protein stability index is 2.36.

Consider HIFPASRWLPYDPEKKWDKYTIR, for which the protein stability index turned out to be 2.42.

With HIFPASRWDPYDPEKKWDKYTIR, the protein stability index was determined as 1.85.

Regarding HIFPASRWFPYDPEKKWDKYTIR, the protein stability index was determined as 2.42.

For HIFPASRWAPYDPEKKWDKYTIR, the protein stability index is 2.24.

As for HIFPASRWGPYDPEKKWDKYTIR, the protein stability index worked out at 1.72.

Turning to HIFPASRWKPYDPEKKWDKYTIR, the protein stability index was 1.68.

Take HIFPASRWCPYDPEKKWDKYTIR: the protein stability index turned out to be 3.21.

Consider HIFPASRWMPYDPEKKWDKYTIR, for which the protein stability index worked out at 1.77.

For HIFPASRWQPYDPEKKWDKYTIR, the protein stability index is 2.2.

With HIFPASRWPPYDPEKKWDKYTIR, the protein stability index stood at 2.57.

On to HIFPASRWWPYDPEKKWDKYTIR, for which the protein stability index was 2.74.

HIFPASRWYPYDPEKKWDKYTIR: the protein stability index is 1.51.

For the variant HIFPASRWSPYDPEKKWDKYTIR, the protein stability index was 2.76.

On to HIFPASRWIPYDPEKKWDKYTIR, for which the protein stability index is 3.95.

Consider HIFPASRWRPYDPEKKWDKYTIR, for which the protein stability index turned out to be 2.43.

As to HIFPASRWHPYDPEKKWDKYTIR, the protein stability index came to 1.88.

Regarding HIFPASRWTPYDPEKKWDKYTIR, the protein stability index amounted to 1.87.

As for HIFPASRWVPYDPEKKWDKYTIR, the protein stability index stood at 2.17.

Turning to HIFPASRWNPYDPEKKWDKYTIR, the protein stability index is 2.05.

Consider HIFDASRWEPYDPEKKWDKYTIR, for which the protein stability index was 2.22.

For HIFMASRWEPYDPEKKWDKYTIR, the protein stability index stood at 1.59.

Turning to HIFSASRWEPYDPEKKWDKYTIR, the protein stability index came to 1.97.

In the case of HIFWASRWEPYDPEKKWDKYTIR, the protein stability index came out at 1.64.

For the variant HIFEASRWEPYDPEKKWDKYTIR, the protein stability index is 2.45.

As to HIFTASRWEPYDPEKKWDKYTIR, the protein stability index stood at 3.16.

Regarding HIFKASRWEPYDPEKKWDKYTIR, the protein stability index is 2.

For HIFCASRWEPYDPEKKWDKYTIR, the protein stability index was determined as 1.69.

Turning to HIFHASRWEPYDPEKKWDKYTIR, the protein stability index worked out at 2.36.

Regarding HIFRASRWEPYDPEKKWDKYTIR, the protein stability index turned out to be 2.13.

For HIFLASRWEPYDPEKKWDKYTIR, the protein stability index was determined as 2.56.

HIFVASRWEPYDPEKKWDKYTIR: the protein stability index worked out at 1.79.

For HIFNASRWEPYDPEKKWDKYTIR, the protein stability index came out at 2.71.

Take HIFQASRWEPYDPEKKWDKYTIR: the protein stability index turned out to be 1.77.

With HIFPQSRWEPYDPEKKWDKYTIR, the protein stability index is 3.48.

As to HIFPMSRWEPYDPEKKWDKYTIR, the protein stability index stood at 1.54.

Consider HIFPCSRWEPYDPEKKWDKYTIR, for which the protein stability index is 1.73.

Regarding HIFPISRWEPYDPEKKWDKYTIR, the protein stability index came out at 2.18.

Take HIFPLSRWEPYDPEKKWDKYTIR: the protein stability index turned out to be 1.58.

With HIFPGSRWEPYDPEKKWDKYTIR, the protein stability index is 2.14.

For HIFPTSRWEPYDPEKKWDKYTIR, the protein stability index was 2.06.
